Consider 56 substances from patent publication US10568950B1, “Peptides, combination of peptides and scaffolds for use in immunotherapeutic treatment of various cancers” (Immatics Biotechnologies GmbH, priority 2015, dated 2020).

Test [1] deals with HLA-A*24. The test can be described thus: MHC binding assay: UV-ligand exchange, beta2m ELISA (peptide exchange yield). The conditions noted are these: binding to HLA-A*24, β2m ELISA. The arrangement: species or system human. The source says:
(§1) Candidate peptides for T cell based therapies according to the present invention were further tested for their MHC binding capacity (affinity). The individual peptide-MHC complexes were produced by UV-ligand exchange, where a UV-sensitive peptide is cleaved upon UV-irradiation, and exchanged with the peptide of interest as analyzed. Only peptide candidates that can effectively bind and stabilize the peptide-receptive MHC molecules prevent dissociation of the MHC complexes. To determine the yield of the exchange reaction, an ELISA was performed based on the detection of the light chain (β2m) of stabilized MHC complexes. The assay was performed as generally described in Rodenko et al. (Rodenko et al., 2006).
(§2) 96 well MAXISorp plates (NUNC) were coated over night with 2 ug/ml streptavidin in PBS at room temperature, washed 4× and blocked for 1 h at 37° C. in 2% BSA containing blocking buffer. […] Peptide-MHC monomers of the UV-exchange reaction were diluted 100 fold in blocking buffer. Samples were incubated for 1 h at 37° C., washed four times, incubated with 2 ug/ml HRP conjugated anti-βm for 1 h at 37° C., washed again and detected with TMB solution that is stopped with […]. Absorption was measured at 450 nm. Candidate peptides that show a high exchange yield (preferably higher than 50%, most preferred higher than 75%) are generally preferred for a generation and production of antibodies or fragments thereof, and/or T cell receptors or fragments thereof, as they show sufficient avidity to the MHC molecules and prevent dissociation of the MHC complexes.
On the technique in general: An ELISA detects its analyte on a solid surface through an enzyme-linked reagent.

The target of test [2] is HLA-A*02 (Homo sapiens, UniProt P04439, D140Y/D185E/D98H/E176V/E277Q/G131W/G231S/I119V/I121R/I166T/I218V/N151K/N90K/P208A/P217A/Q86G/Q94H/R138H/R169H). The description is as above. The conditions noted are these: binding to HLA-A*02, β2m ELISA.
Text: as §1, §2

For the substance “220 (SYSEIKDFL; listed as Homo sapiens) [compound 220]”, the “Peptide exchange (MHC class I binding score, peptide exchange yield)” value (“Peptide exchange” for short) in test [1] is “++++ (>= 75% = ++++)”.

Regarding “211 (VFKSEGAYF; listed as Homo sapiens) [compound 211]”, in test [1], the “Peptide exchange” value is listed as “++++ (>= 75% = ++++)”.

For “248 (AFPTFSVQL; listed as Homo sapiens) [compound 248]”, the “Peptide exchange” value in test [1] is reported as “++++ (>= 75% = ++++)”.

As to “173 (QYLEKYYNL; listed as Homo sapiens) [compound 173]”, in test [1], the “Peptide exchange” value is recorded as “++++ (>= 75% = ++++)”.

Regarding “313 (KYTHFIQSF; listed as Homo sapiens) [compound 313]”, the “Peptide exchange” value in test [1] was “++++ (>= 75% = ++++)”.

Consider “210 (IYAGVGEFSF; listed as Homo sapiens) [compound 210]”, for which the “Peptide exchange” value in test [1] is reported as “++++ (>= 75% = ++++)”.

In the case of “297 (TYIDTRTVF; listed as Homo sapiens) [compound 297]”, in test [1], the “Peptide exchange” value is “++++ (>= 75% = ++++)”.

On to “184 (IYSVGAFENF; listed as Homo sapiens) [compound 184]”, for which the “Peptide exchange” value in test [1] was “++++ (>= 75% = ++++)”.

For the substance “301 (KFDDVTMLF; listed as Homo sapiens) [compound 301]”, in test [1], the “Peptide exchange” value is on record as “++++ (>= 75% = ++++)”.

In the case of “289 (FFHEGQYVF; listed as Homo sapiens) [compound 289]”, in test [1], the “Peptide exchange” value is reported as “++++ (>= 75% = ++++)”.

Consider “129 (KYIDYLMTW; listed as Homo sapiens) [compound 129]”, for which the “Peptide exchange” value in test [1] is listed as “++++ (>= 75% = ++++)”.

On to “319 (KYSDVKNLI; listed as Homo sapiens) [compound 319]”, for which the “Peptide exchange” value in test [1] is reported as “++++ (>= 75% = ++++)”.

As for “149 (SYGTVSQI; listed as Homo sapiens) [compound 149]”, the “Peptide exchange” value in test [1] is “++++ (>= 75% = ++++)”.

For “305 (NYENKQYLF; listed as Homo sapiens) [compound 305]”, the “Peptide exchange” value in test [1] was “++++ (>= 75% = ++++)”.

In the case of “265 (SYLNEAFSF; listed as Homo sapiens) [compound 265]”, the “Peptide exchange” value in test [1] is given as “++++ (>= 75% = ++++)”.

For “70 (GLFSQHFNL; listed as Homo sapiens) [compound 70]”, in test [2], the “Peptide exchange” value is given as “+++ (50%-75% = +++)”.

For “89 (YLVAHNLLL; listed as Homo sapiens) [compound 89]”, in test [2], the “Peptide exchange” value is “+++ (50%-75% = +++)”.

In the case of “53 (SLLSHVIVA; listed as Homo sapiens) [compound 53]”, the “Peptide exchange” value in test [2] is “+++ (50%-75% = +++)”.

Consider “81 (VLFLGKLLV; listed as Homo sapiens) [compound 81]”, for which the “Peptide exchange” value in test [2] is reported as “++ (20%-49% = ++)”.

On to “55 (IASAIVNEL; listed as Homo sapiens) [compound 55]”, for which, in test [2], the “Peptide exchange” value is recorded as “++ (20%-49% = ++)”.

Consider “327 (SIGDIFLKY; listed as Homo sapiens) [compound 327]”, for which the “Peptide exchange” value in test [2] is “+++ (50%-75% = +++)”.

Consider “38 (KMQEDLVTL; listed as Homo sapiens) [compound 38]”, for which the “Peptide exchange” value in test [2] was “+++ (50%-75% = +++)”.

For “76 (ILLDESNFNHFL; listed as Homo sapiens) [compound 76]”, the “Peptide exchange” value in test [2] was “+++ (50%-75% = +++)”.

Regarding “49 (LLDESKLTL; listed as Homo sapiens) [compound 49]”, the “Peptide exchange” value in test [2] is recorded as “+++ (50%-75% = +++)”.

Take “65 (KLDGICWQV; listed as Homo sapiens) [compound 65]”: the “Peptide exchange” value in test [2] was “+++ (50%-75% = +++)”.

As to “336 (GLMDGSPHFL; listed as Homo sapiens) [compound 336]”, the “Peptide exchange” value in test [2] is listed as “++ (20%-49% = ++)”.

For the substance “46 (SLAKHGIVAL; listed as Homo sapiens) [compound 46]”, the “Peptide exchange” value in test [2] is “+++ (50%-75% = +++)”.

Take “5 (SLFGQEVYC; listed as Homo sapiens) [compound 5]”: the “Peptide exchange” value in test [2] is given as “+++ (50%-75% = +++)”.

For “92 (LLRGPPVARA; listed as Homo sapiens) [compound 92]”, the “Peptide exchange” value in test [2] is listed as “++ (20%-49% = ++)”.

“50 (EYALLYHTL; listed as Homo sapiens) [compound 50]”: the “Peptide exchange” value in test [2] is reported as “++ (20%-49% = ++)”.

For the substance “10 (KTLDVFNIIL; listed as Homo sapiens) [compound 10]”, the “Peptide exchange” value in test [2] is “++ (20%-49% = ++)”.

Consider “328 (SVDSAPAAV; listed as Homo sapiens) [compound 328]”, for which the “Peptide exchange” value in test [2] is “++ (20%-49% = ++)”.

Regarding “333 (GTFLEGVAK; listed as Homo sapiens) [compound 333]”, in test [2], the “Peptide exchange” value is “+++ (50%-75% = +++)”.

Turning to “12 (GLIYEETRGV; listed as Homo sapiens) [compound 12]”, in test [2], the “Peptide exchange” value is “++ (20%-49% = ++)”.

For the substance “33 (LLLPLLPPLSPSLG; listed as Homo sapiens) [compound 33]”, the “Peptide exchange” value in test [2] is reported as “+++ (50%-75% = +++)”.

As to “16 (HLYNNEEQV; listed as Homo sapiens) [compound 16]”, in test [2], the “Peptide exchange” value is on record as “++ (20%-49% = ++)”.

In the case of “14 (LLDHLSFINKI; listed as Homo sapiens) [compound 14]”, the “Peptide exchange” value in test [2] is recorded as “++ (20%-49% = ++)”.

Regarding “330 (FLWPKEVEL; listed as Homo sapiens) [compound 330]”, in test [2], the “Peptide exchange” value is on record as “+++ (50%-75% = +++)”.

As for “19 (TLLPTVLTL; listed as Homo sapiens) [compound 19]”, the “Peptide exchange” value in test [2] is given as “+++ (50%-75% = +++)”.

Consider “78 (LLWGHPRVA; listed as Homo sapiens) [compound 78]”, for which the “Peptide exchange” value in test [2] is “+++ (50%-75% = +++)”.

As for “93 (SLLTQPIFL; listed as Homo sapiens) [compound 93]”, in test [2], the “Peptide exchange” value was “+++ (50%-75% = +++)”.

On to “52 (ELLSSIFFL; listed as Homo sapiens) [compound 52]”, for which the “Peptide exchange” value in test [2] is recorded as “+++ (50%-75% = +++)”.

Regarding “13 (VLRDNIQGI; listed as Homo sapiens) [compound 13]”, in test [2], the “Peptide exchange” value is “+++ (50%-75% = +++)”.

For “20 (ALDGHLYAI; listed as Homo sapiens) [compound 20]”, the “Peptide exchange” value in test [2] is “+++ (50%-75% = +++)”.

“329 (FAWEPSFRDQV; listed as Homo sapiens) [compound 329]”: the “Peptide exchange” value in test [2] is listed as “++ (20%-49% = ++)”.

Take “325 (RLLPKVQEV; listed as Homo sapiens) [compound 325]”: the “Peptide exchange” value in test [2] was “++ (20%-49% = ++)”.

Regarding “51 (LLLDGDFTL; listed as Homo sapiens) [compound 51]”, the “Peptide exchange” value in test [2] was “+++ (50%-75% = +++)”.

“41 (FVLPLVVTL; listed as Homo sapiens) [compound 41]”: the “Peptide exchange” value in test [2] was “+++ (50%-75% = +++)”.

For the substance “66 (FITDFYTTV; listed as Homo sapiens) [compound 66]”, the “Peptide exchange” value in test [2] was “+++ (50%-75% = +++)”.

On to “77 (IVLSTIASV; listed as Homo sapiens) [compound 77]”, for which the “Peptide exchange” value in test [2] was “+++ (50%-75% = +++)”.

With “42 (VLSPFILTL; listed as Homo sapiens) [compound 42]”, the “Peptide exchange” value in test [2] is reported as “+++ (50%-75% = +++)”.

Consider “44 (GLLWQIIKV; listed as Homo sapiens) [compound 44]”, for which, in test [2], the “Peptide exchange” value is “++ (20%-49% = ++)”.

Consider “26 (KVDGVVIQL; listed as Homo sapiens) [compound 26]”, for which, in test [2], the “Peptide exchange” value is reported as “+++ (50%-75% = +++)”.

Consider “67 (GVIETVTSL; listed as Homo sapiens) [compound 67]”, for which the “Peptide exchange” value in test [2] is reported as “++ (20%-49% = ++)”.

As to “83 (ELLEYLPQL; listed as Homo sapiens) [compound 83]”, in test [2], the “Peptide exchange” value was “+++ (50%-75% = +++)”.

As to “57 (VLISSTVRL; listed as Homo sapiens) [compound 57]”, the “Peptide exchange” value in test [2] is “++ (20%-49% = ++)”.
